Reference: publication PMC12552936, “Protein inhibitor of retinal membrane guanylyl cyclase suppresses cGMP synthesis in photoreceptors” (The Journal of Biological Chemistry, 2025)

How the values were obtained:
[1] = biological target: mOrange-tagged RetGC1 (retinal membrane guanylyl cyclase 1) (human) (UniProt Q02846)
[2] = biological target: T1, mOrange-tagged RetGC1 (retinal membrane guanylyl cyclase 1) (human, UniProt Q02846 52-1103); experiment: cell-based or functional assay
T1 sequence (looked up): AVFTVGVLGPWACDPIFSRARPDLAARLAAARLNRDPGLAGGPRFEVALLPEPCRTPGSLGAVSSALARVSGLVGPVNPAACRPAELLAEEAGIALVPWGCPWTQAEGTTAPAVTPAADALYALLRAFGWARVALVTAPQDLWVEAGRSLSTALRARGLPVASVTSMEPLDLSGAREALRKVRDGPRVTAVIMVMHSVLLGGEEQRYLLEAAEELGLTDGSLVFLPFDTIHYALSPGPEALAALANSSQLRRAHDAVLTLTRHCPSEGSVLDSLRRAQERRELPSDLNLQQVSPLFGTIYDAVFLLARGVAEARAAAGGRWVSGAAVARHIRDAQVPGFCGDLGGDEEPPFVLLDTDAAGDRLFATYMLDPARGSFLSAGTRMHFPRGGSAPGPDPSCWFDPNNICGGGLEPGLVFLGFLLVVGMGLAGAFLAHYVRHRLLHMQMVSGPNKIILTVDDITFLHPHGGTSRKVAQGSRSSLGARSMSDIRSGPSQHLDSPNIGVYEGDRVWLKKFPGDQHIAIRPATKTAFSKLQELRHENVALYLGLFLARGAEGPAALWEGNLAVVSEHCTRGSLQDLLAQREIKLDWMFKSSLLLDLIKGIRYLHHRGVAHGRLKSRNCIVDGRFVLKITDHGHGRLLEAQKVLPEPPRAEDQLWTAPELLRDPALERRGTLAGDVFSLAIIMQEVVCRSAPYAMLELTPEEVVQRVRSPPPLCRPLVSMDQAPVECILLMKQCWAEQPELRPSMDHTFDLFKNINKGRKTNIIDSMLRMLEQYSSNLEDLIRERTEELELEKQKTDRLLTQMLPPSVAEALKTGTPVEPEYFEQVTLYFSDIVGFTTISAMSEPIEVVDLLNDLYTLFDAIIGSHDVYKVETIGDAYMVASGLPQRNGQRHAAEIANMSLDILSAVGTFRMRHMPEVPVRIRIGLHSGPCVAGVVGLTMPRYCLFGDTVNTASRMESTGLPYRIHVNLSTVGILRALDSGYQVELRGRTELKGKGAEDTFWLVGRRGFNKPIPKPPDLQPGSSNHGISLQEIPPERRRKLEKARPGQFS

[3] = biological target: native RetGC of the mouse retina (endogenous RetGC in retinal homogenates and isolated rod outer segments)

M26R/L176F GCAP1 (from UniProt P46065 1-205) (natural protein)
inhibition of the activity of recombinant RetGC1 in HEK293 membranes reconstituted with 1 μM GCAP1 (blocked pair: RetGC1:GCAP1), 2 mM EGTA, 10 mM MgCl2; IC50 [1]: 300 nM

B1: M26R GCAP1 (natural protein)
chain: MGNIMDGKSVEELSSTECHQWYKKFRTECPSGQLTLYEFRQFFGLKNLSPWASQYVEQMFETFDFNKDGYIDFMEYVAALSLVLKGKVEQKLRWYFKLYDVDGNGCIDRDELLTIIRAIRAINPCSDSTMTAEEFTDTVFSKIDVNGDGELSLEEFMEGVQKDQMLLDTLTRSLDLTRIVRRLQNGEQDEEGASGRETEAAEADG
modifications: N-terminal myristoyl
inhibition of the activity of recombinant RetGC1 in HEK293 membranes reconstituted with 1 μM GCAP1 (blocked pair: RetGC1:GCAP1), 2 mM EGTA, 10 mM MgCl2; IC50 [1]: 640 nM

B2: GCAP1-GFP (wildtype GCAP1 tagged with GFP) (natural protein, bovine, UniProt P46065 1-205, looked up)
chain: MGNIMDGKSVEELSSTECHQWYKKFMTECPSGQLTLYEFRQFFGLKNLSPWASQYVEQMFETFDFNKDGYIDFMEYVAALSLVLKGKVEQKLRWYFKLYDVDGNGCIDRDELLTIIRAIRAINPCSDSTMTAEEFTDTVFSKIDVNGDGELSLEEFMEGVQKDQMLLDTLTRSLDLTRIVRRLQNGEQDEEGASGRETEAAEADG
activation of recombinant human RetGC1 by Mg2+GCAP1 in the absence of Ca2+, dose dependence (Fig. 3A inset); EC50 [2]: ~1500 nM

B3: PIGCY-GFP (protein inhibitor of retinal guanylyl cyclase, M26R/G86R/L176F GCAP1, tagged with GFP at the C-terminus) (designed binder)
chain: MGNIMDGKSVEELSSTECHQWYKKFRTECPSGQLTLYEFRQFFGLKNLSPWASQYVEQMFETFDFNKDGYIDFMEYVAALSLVLKRKVEQKLRWYFKLYDVDGNGCIDRDELLTIIRAIRAINPCSDSTMTAEEFTDTVFSKIDVNGDGELSLEEFMEGVQKDQMLLDTLTRSLDFTRIVRRLQNGEQDEEGASGRETEAAEADG
inhibition by PIGCY of RetGC1 preactivated by 1 μM bovine recombinant GCAP1 (blocked pair: RetGC1:bovine GCAP1), 2 mM EGTA, 10 mM MgCl2; IC50 [2]: 51 nM | inhibition by PIGCY of RetGC1 preactivated by 1 μM human recombinant GCAP1 (blocked pair: RetGC1:human GCAP1), 2 mM EGTA, 10 mM MgCl2; IC50 [2]: 75 nM | inhibition by PIGCY of RetGC1 preactivated by 1 μM mouse recombinant GCAP1 (blocked pair: RetGC1:mouse GCAP1), 2 mM EGTA, 10 mM MgCl2; IC50 [2]: 91 nM | inhibition of the activity of recombinant RetGC1 in HEK293 membranes reconstituted with 1 μM GCAP1 (blocked pair: RetGC1:GCAP1), 2 mM EGTA, 10 mM MgCl2; IC50 [2]: 52 nM | reduction of Vmax of recombinant human RetGC1 in HEK293 membranes reconstituted with 2 μM wildtype GCAP1 by 0.35 μM PIGCY (blocked pair: RetGC1:GCAP1) [2]: > 3 fold | total RetGC activity in the rod outer segment fraction isolated from wildtype mouse retinas with 3 μM PIGCY (32 without PIGCY) (nmol cGMP/min/mg rhodopsin) [3]: 11
